Data on two molecules can be found in patent US20190336615A1 (SILVERBACK THERAPEUTICS, published 2019).

Assay [1] addresses T1, human HER2 expressed on transiently transfected CHO cells (human, UniProt P04626 23-1255).
T1 construct: whole, on cells; also called HER2-expressing CHO cells; CHO-HER2
The assay can be described thus: statement in the macrophage ADCC assay with HER2-expressing CHO cells.
Protocol: Monocyte-derived macrophages were generated by culturing monocytes for 7 days in the presence of GM-CSF. […] After 24 hours, CHO viability was assessed by flow cytometry as a readout of ADCC activity.
Monocytes were isolated from human peripheral blood mononuclear cells (PBMCs) using magnetic bead-based negative selection and cultured 7 days in the presence of GM-CSF to generate macrophages. A CHO cell line was engineered to overexpress human HER2 using standard transient transfection methods and used in assays 2 days after transfection. […] After 24 hours, CHO frequency was assessed by flow cytometry as a readout of ADCC activity.

For assay [2], the target named is T2, monomeric human HER2 extracellular domain (HER2 ECD) (human, UniProt P04626 23-652).
T2 construct: extracellular domain; not tied to the assay protein; also called Hu Her2
Nature of the assay: BLI (Octet), antibody on anti-human Fc sensor, monomeric ECD analyte, 1:1 model. An excerpt: (§1) The Octet systems use propriety BLI to analyze biomolecular interaction.
(In general: BLI is a label-free optical method that tracks binding on a fibre tip over time.)

In assay [3] the target is T3, monomeric human CEA extracellular domain (CEA ECD; CEACAM5) (human, UniProt P06731 35-685).
T3 construct: extracellular domain; not tied to the assay protein; also called CEACAM5 (CEA)
T3 sequence (looked up): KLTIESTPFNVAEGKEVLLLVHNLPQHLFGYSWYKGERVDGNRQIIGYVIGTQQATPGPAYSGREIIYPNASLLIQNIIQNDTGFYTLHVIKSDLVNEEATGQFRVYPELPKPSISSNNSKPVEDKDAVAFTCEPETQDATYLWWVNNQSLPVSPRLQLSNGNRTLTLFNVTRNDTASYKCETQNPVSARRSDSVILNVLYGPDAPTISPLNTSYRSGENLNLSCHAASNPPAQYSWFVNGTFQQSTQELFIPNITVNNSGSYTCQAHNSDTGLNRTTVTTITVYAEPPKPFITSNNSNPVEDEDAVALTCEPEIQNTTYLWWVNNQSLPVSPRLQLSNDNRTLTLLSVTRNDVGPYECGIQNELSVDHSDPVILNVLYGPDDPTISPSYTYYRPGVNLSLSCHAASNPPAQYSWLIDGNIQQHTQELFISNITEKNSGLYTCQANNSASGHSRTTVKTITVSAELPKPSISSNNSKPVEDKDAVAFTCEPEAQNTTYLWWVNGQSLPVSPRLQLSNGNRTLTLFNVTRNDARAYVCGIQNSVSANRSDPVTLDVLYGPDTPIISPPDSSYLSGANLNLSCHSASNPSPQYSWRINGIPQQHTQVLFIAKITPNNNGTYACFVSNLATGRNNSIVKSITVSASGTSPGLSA
The assay is described as above. As to the method: (§2) The Octet systems use propriety BLI to analyze biomolecular interaction. […] Data were analyzed using Octet Data Analysis Software 9.0 (ForteBio) and fitted to the 1:1 binding model. Equilibrium dissociation constants (KD) were calculated by the […].

Assay [4] has as its target T4, monomeric human CD40 extracellular domain (CD40 ECD) (human, UniProt P25942 21-193).
T4 construct: extracellular domain; it is not tied to the assay protein; also called Hu CD40
The description is as above.
From the text: as §1

For assay [5], the target named is T5, monomeric human DEC205 extracellular domain (DEC205 ECD) (human, UniProt O60449 28-1666).
T5 construct: extracellular domain; none tied to the assay protein
T5 sequence (O60449 28-1666): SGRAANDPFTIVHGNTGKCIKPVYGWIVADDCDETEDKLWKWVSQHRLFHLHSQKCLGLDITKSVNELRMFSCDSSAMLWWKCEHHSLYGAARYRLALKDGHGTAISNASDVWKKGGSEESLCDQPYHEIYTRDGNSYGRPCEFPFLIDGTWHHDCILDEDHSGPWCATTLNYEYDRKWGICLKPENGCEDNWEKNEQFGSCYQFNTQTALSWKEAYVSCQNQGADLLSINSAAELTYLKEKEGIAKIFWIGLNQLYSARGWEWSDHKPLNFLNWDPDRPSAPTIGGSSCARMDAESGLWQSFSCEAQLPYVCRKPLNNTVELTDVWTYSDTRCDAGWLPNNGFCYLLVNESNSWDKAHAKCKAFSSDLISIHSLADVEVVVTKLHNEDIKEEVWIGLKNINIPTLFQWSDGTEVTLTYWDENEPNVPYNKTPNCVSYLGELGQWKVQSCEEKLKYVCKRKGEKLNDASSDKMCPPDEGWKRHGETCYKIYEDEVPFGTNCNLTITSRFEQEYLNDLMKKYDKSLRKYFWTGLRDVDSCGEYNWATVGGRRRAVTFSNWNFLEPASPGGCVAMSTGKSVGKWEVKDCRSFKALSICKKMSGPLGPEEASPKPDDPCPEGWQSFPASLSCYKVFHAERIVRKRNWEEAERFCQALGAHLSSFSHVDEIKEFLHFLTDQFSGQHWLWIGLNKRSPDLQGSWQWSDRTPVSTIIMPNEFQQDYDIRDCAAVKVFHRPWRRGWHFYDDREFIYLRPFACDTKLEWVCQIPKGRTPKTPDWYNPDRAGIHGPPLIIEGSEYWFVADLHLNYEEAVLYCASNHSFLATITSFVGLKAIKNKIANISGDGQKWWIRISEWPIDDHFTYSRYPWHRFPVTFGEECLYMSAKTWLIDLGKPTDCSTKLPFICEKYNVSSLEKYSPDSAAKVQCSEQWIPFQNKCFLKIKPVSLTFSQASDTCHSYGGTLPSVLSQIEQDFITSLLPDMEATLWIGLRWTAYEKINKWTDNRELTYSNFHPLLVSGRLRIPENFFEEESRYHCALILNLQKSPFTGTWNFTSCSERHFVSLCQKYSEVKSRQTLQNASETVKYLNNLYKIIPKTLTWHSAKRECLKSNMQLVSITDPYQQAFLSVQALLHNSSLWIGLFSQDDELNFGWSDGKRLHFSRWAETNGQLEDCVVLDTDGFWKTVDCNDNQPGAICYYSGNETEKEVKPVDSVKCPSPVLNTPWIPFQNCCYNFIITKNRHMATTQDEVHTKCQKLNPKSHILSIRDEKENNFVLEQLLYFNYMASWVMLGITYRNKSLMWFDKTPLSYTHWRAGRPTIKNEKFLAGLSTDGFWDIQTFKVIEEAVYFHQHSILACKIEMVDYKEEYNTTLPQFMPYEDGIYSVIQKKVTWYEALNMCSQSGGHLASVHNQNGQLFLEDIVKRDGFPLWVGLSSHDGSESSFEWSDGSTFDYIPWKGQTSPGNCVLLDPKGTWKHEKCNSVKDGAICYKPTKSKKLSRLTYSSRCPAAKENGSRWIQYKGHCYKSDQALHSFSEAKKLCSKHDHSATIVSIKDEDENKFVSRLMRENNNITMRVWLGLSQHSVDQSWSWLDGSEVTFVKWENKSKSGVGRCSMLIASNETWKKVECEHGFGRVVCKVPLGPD
Described as above. Here is the method: as §2

T4 sequence (P25942 21-193): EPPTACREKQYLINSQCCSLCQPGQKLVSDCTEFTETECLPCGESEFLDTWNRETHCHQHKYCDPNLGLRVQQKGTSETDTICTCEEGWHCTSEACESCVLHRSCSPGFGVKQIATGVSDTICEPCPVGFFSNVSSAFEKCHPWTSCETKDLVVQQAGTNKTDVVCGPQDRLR

B1: parental anti-CD40 monoclonal antibody (SBT-040G1) (antibody, human IgG1, kappa)
heavy: not shown
light: DIQMTQSPSSVSASVGDRVTITCRASQGIYSWLAWYQQKPGKAPNLLIYTASTLQSGVPSRFSGSGSGTDFTLTISSLQPEDFATYYCQQANIFPLTFGGGTKVEIKRTVAAPSVFIFPPSDEQLKSGTASVVCLLNNFYPREAKVQWKVDNALQSGNSQESVTEQDSKDSTYSLSSTLTLSKADYEKHKVYACEVTHQGLSSPVTKSFNRGEC
notes: Human IgG1 anti-CD40; also called Parental anti-CD40 antibody; Parental Anti-CD40 Antibody
On to B1, for which the binding result is given as “no binding” in assay [1], “no binding (tested: 1.2 nM to 300 nM)” in assay [2] and “no binding (tested: 1.2 nM to 300 nM)” in assay [3].

B2: parental anti-HER2 monoclonal antibody (SBT-050G1), pertuzumab (antibody, human IgG1, kappa)
heavy: not shown
light: not shown
notes: also called Parental anti-HER2 antibody; Parental Anti-HER2 Antibody
In the case of B2, the binding result in assay [4] and in assay [5] was “no binding (tested: 1.2 nM to 300 nM)” each time.
